This is an account of results in article PMC12331966.

Assay in all cases: EMSA
(In EMSA bound probe runs differently from free probe, usually more slowly.)

One data set has as its target PABPC1 K512R (Homo sapiens, UniProt P11940 1-636, K512R).
The target in the next data set is PABPC1 WT (Homo sapiens, UniProt P11940 1-636).
Another data set addresses T1, TIA1 WT (Homo sapiens, UniProt P31483 1-386).
T1 sequence: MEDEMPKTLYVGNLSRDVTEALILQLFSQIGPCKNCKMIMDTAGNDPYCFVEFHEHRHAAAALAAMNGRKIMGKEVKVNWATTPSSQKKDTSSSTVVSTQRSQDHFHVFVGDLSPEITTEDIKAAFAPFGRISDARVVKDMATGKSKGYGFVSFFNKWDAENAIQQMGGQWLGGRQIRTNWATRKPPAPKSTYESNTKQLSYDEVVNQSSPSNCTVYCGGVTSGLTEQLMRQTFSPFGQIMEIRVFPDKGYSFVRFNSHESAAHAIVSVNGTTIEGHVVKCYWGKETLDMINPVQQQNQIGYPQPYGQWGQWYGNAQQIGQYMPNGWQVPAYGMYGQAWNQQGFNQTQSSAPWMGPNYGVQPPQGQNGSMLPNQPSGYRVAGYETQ

Sequence of PABPC1 WT (P11940 whole entry): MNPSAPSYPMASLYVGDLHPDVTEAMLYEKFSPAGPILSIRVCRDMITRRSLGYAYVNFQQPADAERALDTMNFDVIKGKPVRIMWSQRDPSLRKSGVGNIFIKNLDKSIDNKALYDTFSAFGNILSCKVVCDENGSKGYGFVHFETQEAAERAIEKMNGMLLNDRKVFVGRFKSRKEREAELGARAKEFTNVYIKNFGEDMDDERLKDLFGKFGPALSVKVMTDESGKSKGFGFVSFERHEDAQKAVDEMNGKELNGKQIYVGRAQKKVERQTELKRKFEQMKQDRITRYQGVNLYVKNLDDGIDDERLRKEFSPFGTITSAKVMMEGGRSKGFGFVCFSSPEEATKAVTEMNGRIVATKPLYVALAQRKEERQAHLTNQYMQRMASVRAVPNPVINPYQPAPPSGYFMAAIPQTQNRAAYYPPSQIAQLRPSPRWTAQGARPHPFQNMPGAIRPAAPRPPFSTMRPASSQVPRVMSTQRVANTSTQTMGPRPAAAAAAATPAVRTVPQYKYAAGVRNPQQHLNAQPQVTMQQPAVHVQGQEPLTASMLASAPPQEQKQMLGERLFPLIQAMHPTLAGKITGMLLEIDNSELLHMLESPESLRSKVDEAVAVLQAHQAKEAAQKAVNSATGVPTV
Sequence of PABPC1 K512R (P11940 whole entry K512R): as the sequence (P11940 whole entry) above, with K512R counted along it

B1: Bio-A90 (ssRNA)
RNA: GCCUUUCAUCUCUAACUGCGAAAAAAAAAAAAAAAAAAAAAAAAAAAAAAAAAAAAAAAAAAAAAAAAAAAAAAAAAAAAAAAAAAAAAAAAAAAAAAAAAAAAAAAAAA
Regarding B1, the binding result in the data set with PABPC1 K512R and with PABPC1 WT was “binds” each time.

B2: Bio-polyU (ssRNA)
RNA: CUUUUUUUUUUUUUUUUUUUUUUUUG
On to B2, for which, in the data set with TIA1 WT, the binding result is “binds”.
